Experimental data from patent US20090170166A1.

Target: T1, recombinant uracil-DNA-glycosylase inhibitor (rUgi), P14739
T1 chain: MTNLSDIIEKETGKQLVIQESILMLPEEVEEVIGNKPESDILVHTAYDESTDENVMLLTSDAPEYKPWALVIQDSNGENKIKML

B1: uracil-DNA-glycosylase (UDG) (protein)
chain: ANELTWHDVLAEEKQQPYFLNTLQTVASERQSGVTIYPPQKDVFNAFRFTELGDVKVVILGQDPYHGPGQAHGLAFSVRPGIAIPPSLLNMYKELENTIPGFTRPNHGYLESWARQGVLLLNTVLTVRAGQAHSHASLGWETFTDKVISLINQHREGVVFLLWGSHAQKKGAIIDKQRHHVLKAPHPSPLSAHRGFFGCNHFVLANQWLEQRGETPIDWMPVLPAESE
digestion of DNA-dUTP by UDG 1/35 (agarose gel), without and after 10 min at 90 C: the two dilutions of Ugi indeed inhibit the digestion of DNA by UDG (lanes D and G); after a treatment of 10 minutes at 90° C., the Ugi remains active because it still inhibits the UDG (lanes J and M) | digestion of DNA-dUTP by UDG 1/35, 60 min at 37 C (agarose gel): the two dilutions of Ugi indeed inhibit UDG (lanes D and G) | digestion of DNA-dUTP by UDG (agarose gel), UDG 1/25: at the highest concentration of UDG, the UDG activity may be inhibited by Ugi at 1/20 000 but not at 1/30 000 | digestion of DNA-dUTP by UDG (agarose gel), UDG 1/50: at the lowest concentration of UDG, the UDG activity is inhibited both by Ugi at 1/20 000 and at 1/30 000
